The target of test [1] is T1, m4 circular peptide biotin-PEG(2)-CSPKKDVLETFTVKSSC (human, disulfide 1-17; not fully specified; printed as biotin-PEG(2)-CSPKKDVLETFTVKSSC).
T1 construct: synthetic peptide; also called circular constructed m4 peptide
T1 peptide: {Biotin-PEG2′}-CSPKKDVLETFTVKSSC
Nature of the test: ELISA and SPR.

A further test addresses T2, mouse CD9 on platelets (mouse, UniProt P40240 1-226).
T2 construct: whole, on cells
T2 sequence (looked up): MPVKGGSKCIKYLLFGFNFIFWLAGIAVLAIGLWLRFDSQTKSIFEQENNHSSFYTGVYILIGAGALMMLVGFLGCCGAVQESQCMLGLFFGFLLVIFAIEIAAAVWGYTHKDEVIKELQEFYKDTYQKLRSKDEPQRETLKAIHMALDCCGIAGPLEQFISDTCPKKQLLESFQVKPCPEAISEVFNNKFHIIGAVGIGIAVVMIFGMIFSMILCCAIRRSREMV
Description: flow cytometry on NSG mouse blood, IgG-bio SA-PeCy7.

The next test has as its target T3, surface CD81 (human, UniProt P60033).
T3 construct: also called CD81 on cells
T3 sequence (tetraspanin chain, looked up): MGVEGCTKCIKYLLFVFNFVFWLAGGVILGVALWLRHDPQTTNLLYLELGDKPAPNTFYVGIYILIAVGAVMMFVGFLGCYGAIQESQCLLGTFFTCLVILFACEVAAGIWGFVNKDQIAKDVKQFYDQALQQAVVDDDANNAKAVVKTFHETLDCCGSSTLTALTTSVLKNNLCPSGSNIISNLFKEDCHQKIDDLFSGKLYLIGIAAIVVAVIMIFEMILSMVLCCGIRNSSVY
Description: flow cytometry, AT14-12 (IgG1) against AT10-02 (IgG1) on transduced HL-60 cells.

For another test, the target named is T4, human CD9 (human, UniProt P21926 2-228).
T4 construct: Natural CD9 on tumor cell lines, primary cells and platelets, or in their lysates (Western blot, immunoprecipitation); also called MRP-1; MIC3
T4 sequence: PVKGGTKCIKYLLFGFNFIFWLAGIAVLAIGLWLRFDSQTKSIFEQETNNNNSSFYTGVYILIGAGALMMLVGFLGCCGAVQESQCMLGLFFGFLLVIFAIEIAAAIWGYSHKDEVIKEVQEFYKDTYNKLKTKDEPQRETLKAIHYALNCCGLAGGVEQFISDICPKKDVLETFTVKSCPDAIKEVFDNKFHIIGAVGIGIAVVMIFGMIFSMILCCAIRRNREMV
Description: flow cytometry on melanoma (MelWBO) cells, CHO supernatant.

The target of test [2] is T5, CD9-3×FLAG-rabbitFc-Sortase-biotin (human; rabbit, biotin attached at the C-terminus by Sortase A with a GGG-biotin nucleophile; the HIS tag is removed by that reaction).
T5 construct: also called CD9-EC2-3×FLAG-rabbitFc; recombinant CD9-EC2 protein; not shown: Fc region (CH2-CH3) of a rabbit IgG1 protein, amino acids 108-322, UniProt P01870
T5 chain (part 1 of 2): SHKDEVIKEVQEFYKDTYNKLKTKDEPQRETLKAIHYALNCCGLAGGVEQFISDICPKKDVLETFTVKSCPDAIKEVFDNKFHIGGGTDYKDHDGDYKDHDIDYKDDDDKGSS
T5 chain (part 2 of 2): GGGSLPETGGHHHHHH
Nature of the test: SPR on CD9-3xFLAG-rabbitFc-Sortase-biotin spots, CHO production supernatant; unit from the legend paragraph 219.

Test [3] concerns the target T5, CD9-3×FLAG-rabbitFc-Sortase-biotin. Nature of the test: SPR on CD9 coated chip, CHO production supernatant.
Test [4] shares this target. Description: SPR on CD9-3xFLAG-rabbitFc-Sortase-biotin spots, CHO production supernatant; unit and power of ten from the legend paragraph 219.
Test [5] has the same target. Description: SPR (IBIS), B cell supernatant on the CD9 spot; unit inferred.

Bridges are numbered along the chain shown (N, C = ends). Primed or numbered codes have the meaning given here. Where no end group is shown, it is not given here. The star is where a group is joined. PEG2′ = PEG2 spacer group linking an N-terminal biotin to the peptide; Biotin = O=C1N[C@H]2[C@H](CS[C@H]2CCCCC(=O)*)N1

B1: antibody AT14-012 (antibody, V domains shown)
VH: EVQVVESGGGLVQPGRSLRLSCAASGFTFDDYAMHWVRQAPGKGLEWVSGISWNSGSIVYADSVKGRFTISRDNAKNSLYLQLNSLRAEDTAFYYCAKAVSGYYPYFDYWGQGILVTVSS
VL: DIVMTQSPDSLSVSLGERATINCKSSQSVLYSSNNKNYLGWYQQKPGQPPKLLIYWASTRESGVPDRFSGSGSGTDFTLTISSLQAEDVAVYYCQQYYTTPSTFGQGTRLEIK
notes: also called AT1412; WT AT14-012
Turning to B1, the binding result (in test [1]; in the test with mouse CD9 on platelets) was “no binding” in each case.

B2: AT14-012 recombinant antibody engineered as an IgG1 (antibody, V domains shown)
VH: EVQVVESGGGLVQPGRSLRLSCAASGFTFDDYAMHWVRQAPGKGLEWVSGISWNSGSIVYADSVKGRFTISRDNAKNSLYLQLNSLRAEDTAFYYCAKAVSGYYPYFDYWGQGILVTVSS
VL: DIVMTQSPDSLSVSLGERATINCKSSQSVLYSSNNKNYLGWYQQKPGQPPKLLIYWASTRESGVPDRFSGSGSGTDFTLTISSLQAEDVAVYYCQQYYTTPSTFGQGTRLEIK
modifications: Some experiments used Alexa647 or biotin labelled antibody, or a sortase-tagged (ST) heavy chain. None of this is carried in the letters.
notes: May be the same molecule as m1 if m1 stands for the IgG1 form; also called AT14-012 IgG1
Turning to B2, the binding result with surface CD81 is given as “no binding”.

B3: AT14-012 single mutant H40Y (antibody, V domains shown)
VH: EVQVVESGGGLVQPGRSLRLSCAASGFTFDDYAMYWVRQAPGKGLEWVSGISWNSGSIVYADSVKGRFTISRDNAKNSLYLQLNSLRAEDTAFYYCAKAVSGYYPYFDYWGQGILVTVSS
VL: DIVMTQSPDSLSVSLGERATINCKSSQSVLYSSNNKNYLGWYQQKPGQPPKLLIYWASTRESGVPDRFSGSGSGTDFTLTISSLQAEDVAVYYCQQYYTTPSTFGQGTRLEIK
Turning to B3, in the test with human CD9, the binding result is reported as “binds”. Moreover, binding in test [2] was characterised by a dissociation constant (Kd) of 0.543 nM. Further, the “fold enhancement of affinity against WT AT14-012” value (from here on “fold enhancement of affinity”) in test [3] was 100 times. In test [4], this molecule showed a koff of 0.000202 s⁻¹ and a kon of 372000 M⁻¹ s⁻¹.

B4: AT14-012 double mutant D116H/T29N (antibody, V domains shown)
VH: EVQVVESGGGLVQPGRSLRLSCAASGFNFDDYAMHWVRQAPGKGLEWVSGISWNSGSIVYADSVKGRFTISRDNAKNSLYLQLNSLRAEDTAFYYCAKAVSGYYPYFHYWGQGILVTVSS
VL: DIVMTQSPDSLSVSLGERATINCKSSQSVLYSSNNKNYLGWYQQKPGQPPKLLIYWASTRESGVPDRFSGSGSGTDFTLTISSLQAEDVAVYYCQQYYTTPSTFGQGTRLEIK
notes: also called combination of the two group 2 mutations
Turning to B4, the binding result in the test with human CD9 is recorded as “binds”. Also, the equilibrium dissociation constant (Kd) in test [2] worked out at 4.19 nM. In test [4], this molecule yielded a koff of 0.00297 s⁻¹ and an on-rate (kon) of 708000 M⁻¹ s⁻¹.

B5: 2H15 B cell subclone 4H10 (antibody, V domains shown)
VH: EVQVVESGGGLVQPGRSLRLSCAASGFTFDDYAMYWVRQAPGKGLEWVSGISWNSGSIVYADSVKGRFTISRDNAKNSLYLQLNSLRAEDTAFYYCAKAVSGYYPYFDYWGQGILVTVSS
VL: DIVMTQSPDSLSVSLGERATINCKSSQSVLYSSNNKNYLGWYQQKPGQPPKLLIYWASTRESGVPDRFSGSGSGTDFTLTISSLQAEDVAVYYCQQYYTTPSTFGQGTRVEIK
notes: group 1; B cell supernatant
As to B5, the dissociation constant Kd in test [5] was 6.1 nM.

B6: 2H15 B cell subclone 2D12 (antibody, V domains shown)
VH: EVQVVESGGGLVQPGRSLRLSCAASGFTFDDYAMHWVRQAPGKGLEWVSGISWNSGSIVYADSVKGRFTISRDNAKNSLYLQLNSLRAEDTAFYYCAKAVSGYYPYFHYWGQGILVTVSS
VL: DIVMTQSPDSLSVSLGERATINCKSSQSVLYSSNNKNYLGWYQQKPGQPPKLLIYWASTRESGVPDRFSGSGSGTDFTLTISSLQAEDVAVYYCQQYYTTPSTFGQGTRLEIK
notes: group 2; B cell supernatant
B6: the Kd in test [5] was 5.2 nM.

B7: AT14-012 single mutant D116H (antibody, V domains shown)
VH: EVQVVESGGGLVQPGRSLRLSCAASGFTFDDYAMHWVRQAPGKGLEWVSGISWNSGSIVYADSVKGRFTISRDNAKNSLYLQLNSLRAEDTAFYYCAKAVSGYYPYFHYWGQGILVTVSS
VL: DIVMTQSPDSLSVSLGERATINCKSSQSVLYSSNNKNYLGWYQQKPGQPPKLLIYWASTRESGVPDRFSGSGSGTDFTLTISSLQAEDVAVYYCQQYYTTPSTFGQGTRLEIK
In the case of B7, in the test with human CD9, the binding result is listed as “binds”. Further, binding in test [2] was put at a Kd of 4.62 nM. In test [3], the “fold enhancement of affinity” value was 10 times. In test [4], this molecule registered a koff of 0.00217 s⁻¹ and a kon of 470000 M⁻¹ s⁻¹.

B8: 2H15 B cell subclone 4D4 (antibody, IgG3, V domains shown)
VH: EVQVVESGGGLVQPGRSLRLSCAASGFTFDDYAMHWVRQAPGKGLEWVSGISWNSGSIVYADSVKGRFTISRDNAKNSLYLQLNSLRAEDTAFYYCAKAVSGYYPYFDYWGQGILVTVSS
VL: DIVMTQSPDSLSVSLGERATINCKSSQSVLYSSNNKNYLGWYQQKPGQPPKLLIYWASIRESGVPDRFSGSGSGTDFTLTISSPQAEDVAVYYCQQYYTTPSTFGQGTRLEIK
notes: group 2; B cell supernatant, IgG3
Turning to B8, in test [5], the dissociation constant Kd is 15.9 nM.

B9: 2H15 B cell subclone 1F5 (antibody, V domains shown)
VH: EVQVVESGGGLVQPGRSLRLSCAASGFTFDDYAMHWVRQAPGKGLEWVSGISWNSGSIVYADSVKGRFTISRDNAKNSLYLQLNSLRAEDTAFYYCAKAVSGYFPYFDYWGQGILVTVSS
VL: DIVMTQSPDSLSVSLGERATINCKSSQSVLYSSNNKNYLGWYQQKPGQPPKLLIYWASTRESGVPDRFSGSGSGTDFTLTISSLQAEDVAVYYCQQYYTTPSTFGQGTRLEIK
notes: group 1; B cell supernatant
On to B9, for which the Kd in test [5] was determined as 3.8 nM. This Kd lies about 4.2-fold lower than the previous one.

B10: AT14-012 single mutant Y112F (antibody, V domains shown)
VH: EVQVVESGGGLVQPGRSLRLSCAASGFTFDDYAMHWVRQAPGKGLEWVSGISWNSGSIVYADSVKGRFTISRDNAKNSLYLQLNSLRAEDTAFYYCAKAVSGYFPYFDYWGQGILVTVSS
VL: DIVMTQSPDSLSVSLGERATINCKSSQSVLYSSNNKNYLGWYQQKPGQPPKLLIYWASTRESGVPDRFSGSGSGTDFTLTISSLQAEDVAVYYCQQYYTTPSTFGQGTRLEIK
On to B10, for which, in the test with human CD9, the binding result is listed as “binds”. For the same molecule, the affinity in test [2], expressed as Kd, was 1.09 nM. Besides, in test [3], the “fold enhancement of affinity” value stood at 50 times. In test [4], this molecule had a koff of 0.000203 s⁻¹ and a kon of 185000 M⁻¹ s⁻¹.

B11: AT14-012 quadruple mutant H40Y/Y112F/D116H/T29N (antibody, V domains shown)
VH: EVQVVESGGGLVQPGRSLRLSCAASGFNFDDYAMYWVRQAPGKGLEWVSGISWNSGSIVYADSVKGRFTISRDNAKNSLYLQLNSLRAEDTAFYYCAKAVSGYFPYFHYWGQGILVTVSS
VL: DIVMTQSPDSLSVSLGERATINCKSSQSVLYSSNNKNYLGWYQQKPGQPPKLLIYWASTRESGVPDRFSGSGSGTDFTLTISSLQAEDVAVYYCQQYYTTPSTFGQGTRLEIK
notes: also called quadruple variant
Regarding B11, the binding result with human CD9 was “binds”. In test [2], this molecule displayed an equilibrium dissociation constant (Kd) of 0.455 nM. In test [3], the dissociation constant Kd was roughly 0.455 nM and the “fold lower affinity against the group 1 double mutant (H40Y/Y112F)” value was 2 times. In test [4], this molecule had a koff of 6.92e-05 s⁻¹ and a kon of 153000 M⁻¹ s⁻¹.

B12: AT14-012 double mutant H40Y/Y112F (antibody, V domains shown)
VH: EVQVVESGGGLVQPGRSLRLSCAASGFTFDDYAMYWVRQAPGKGLEWVSGISWNSGSIVYADSVKGRFTISRDNAKNSLYLQLNSLRAEDTAFYYCAKAVSGYFPYFDYWGQGILVTVSS
VL: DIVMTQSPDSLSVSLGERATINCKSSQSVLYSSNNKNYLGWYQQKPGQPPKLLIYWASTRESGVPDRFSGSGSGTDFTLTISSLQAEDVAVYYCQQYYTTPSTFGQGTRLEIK
notes: also called double group 1 mutant; combination group 1 mutant
For the molecule B12, the binding result with human CD9 is given as “binds”. In test [2], this molecule registered a Kd of 0.219 nM. Besides, in test [3], the Kd was roughly 0.22 nM and the “fold enhancement of affinity” value is 250 times. In test [4], this molecule registered an off-rate constant (koff) of 3.69e-05 s⁻¹ and a kon of 164000 M⁻¹ s⁻¹.

B13: AT14-012 single mutant T29N (antibody, V domains shown)
VH: EVQVVESGGGLVQPGRSLRLSCAASGFNFDDYAMHWVRQAPGKGLEWVSGISWNSGSIVYADSVKGRFTISRDNAKNSLYLQLNSLRAEDTAFYYCAKAVSGYYPYFDYWGQGILVTVSS
VL: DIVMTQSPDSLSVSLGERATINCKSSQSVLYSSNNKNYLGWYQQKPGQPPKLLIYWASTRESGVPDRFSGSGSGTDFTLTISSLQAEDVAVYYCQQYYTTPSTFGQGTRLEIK
With B13, the binding result with human CD9 was “binds”. This molecule also displayed an equilibrium dissociation constant (Kd) in test [2] of 50.1 nM. For the same molecule, in test [4], the off-rate (koff) was 0.00126 s⁻¹ and the kon was found to be 25900 M⁻¹ s⁻¹.

B14: 2H15 B cell subclone 1D5 (antibody, V domains shown)
VH: EVQVVESGGGLVQPGRSLRLSCAASGFTFDDYAMYWVRQAPGKGLEWVSGISWNSGSIVYADSVKGRFTISRDNAKNSLYLQLNSLRAEDTAFYYCAKAVSGYYPYFDYWGQGILVTVSS
VL: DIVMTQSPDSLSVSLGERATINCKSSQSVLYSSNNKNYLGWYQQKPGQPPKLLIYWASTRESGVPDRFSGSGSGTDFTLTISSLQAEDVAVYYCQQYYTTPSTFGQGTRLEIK
notes: group 1; B cell supernatant
Take B14: in test [5], binding was characterised by a dissociation constant (Kd) of 2.3 nM.

B15: 2H15 B cell subclone 10D1 (antibody, V domains shown)
VH: EVQVVESGGGLVQPGRSLRLSCAASGFTFDDYAMYWVRQAPGKGLEWVSGISWNSGSIVYADSVKGRFTISRDNAKNSLYLQLNSLRAEDTAFYYCAKAVSGYYPYFDYWGQGILVTVSS
VL: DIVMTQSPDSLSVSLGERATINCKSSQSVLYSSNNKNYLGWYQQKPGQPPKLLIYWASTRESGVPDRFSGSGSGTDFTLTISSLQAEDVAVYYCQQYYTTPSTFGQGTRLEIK
notes: group 1; B cell supernatant
With B15, in test [5], the Kd was found to be 3.9 nM. This Kd lies about 1.7-fold higher than the previous one.

These data come from US11136407 (AIMM THERAPEUTICS B V, dated 2021).
